{
  "source": "patent US20210095041A1",
  "about": "(published 2021)",
  "binders": {"B1": {"name": "Biotinylated Human CD39-His (enzyme)", "chain": "TQNKALPENVKYGIVLDAGSSHTSLYIYKWPAEKENDTGVVHQVEECRVKGPGISKFVQKVNEIGIYLTDCMERAREVIPRSQHQETPVYLGATAGMRLLRMESEELADRVLDVVERSLSNYPFDFQGARIITGQEEGAYGWITINYLLGKFSQKTRWFSIVPYETNNQETFGALDLGGASTQVTFVPQNQTIESPDNALQFRLYGKDYNVYTHSFLCYGKDQALWQKLAKDIQVASNEILRDPCFHPGYKKVVNVSDLYKTPCTKRFEMTLPFQQFEIQGIGNYQQCHQSILELFNTSYCPYSQCAFNGIFLPPLQGDFGAFSAFYFVMKFLNLTSEKVSQEKVTEMMKKFCAQPWEEIKTSYAGVKEKYLSEYCFSGTYILSLLLQGYHFTADSWEHIHFIGKIQGSDAGWTLGYMLNLTNMIPAEQPLSTPLSHSTYV"}, "B2": {"name": "Human CD39-His (enzyme)", "chain": "B1 chain"}},
  "key": {"Clone #18 [1]": {"target": "Clone #18", "assay": "MSD-SET; Fab"}, "Clone #20 [2]": {"target": "Clone #20", "assay": "MSD-SET; Fab"}, "Clone #15 [3]": {"target": "Clone #15", "assay": "MSD-SET; Fab"}, "Clone #13 [4]": {"target": "Clone #13", "assay": "MSD-SET; Fab"}, "Clone #17 [5]": {"target": "Clone #17", "assay": "MSD-SET; Fab"}, "Clone #14 [6]": {"target": "Clone #14", "assay": "MSD-SET; Fab"}, "Clone #1 [7]": {"target": "Clone #1", "assay": "MSD-SET; Fab"}, "Clone #12": {"target": "Clone #12", "assay": "BLI (ForteBio Octet); IgG, monovalent"}, "Clone #18 [8]": {"target": "Clone #18", "assay": "BLI (ForteBio Octet); IgG, monovalent"}, "Clone #3": {"target": "Clone #3", "assay": "BLI (ForteBio Octet); IgG, monovalent"}, "Clone #19": {"target": "Clone #19", "assay": "BLI (ForteBio Octet); IgG, monovalent"}, "Clone #20 [9]": {"target": "Clone #20", "assay": "BLI (ForteBio Octet); IgG, monovalent"}, "Clone #16": {"target": "Clone #16", "assay": "BLI (ForteBio Octet); IgG, monovalent"}, "Clone #2": {"target": "Clone #2", "assay": "BLI (ForteBio Octet); IgG, monovalent"}, "Clone #10": {"target": "Clone #10", "assay": "BLI (ForteBio Octet); IgG, monovalent"}, "Clone #15 [10]": {"target": "Clone #15", "assay": "BLI (ForteBio Octet); IgG, monovalent"}, "Clone #7": {"target": "Clone #7", "assay": "BLI (ForteBio Octet); IgG, monovalent"}, "Clone #4": {"target": "Clone #4", "assay": "BLI (ForteBio Octet); IgG, monovalent"}, "Clone #13 [11]": {"target": "Clone #13", "assay": "BLI (ForteBio Octet); IgG, monovalent"}, "Clone #5": {"target": "Clone #5", "assay": "BLI (ForteBio Octet); IgG, monovalent"}, "Clone #8": {"target": "Clone #8", "assay": "BLI (ForteBio Octet); IgG, monovalent"}, "Clone #11": {"target": "Clone #11", "assay": "BLI (ForteBio Octet); IgG, monovalent"}, "Clone #17 [12]": {"target": "Clone #17", "assay": "BLI (ForteBio Octet); IgG, monovalent"}, "Clone #6": {"target": "Clone #6", "assay": "BLI (ForteBio Octet); IgG, monovalent"}, "Clone #14 [13]": {"target": "Clone #14", "assay": "BLI (ForteBio Octet); IgG, monovalent"}, "Clone #9": {"target": "Clone #9", "assay": "BLI (ForteBio Octet); IgG, monovalent"}, "Clone #1 [14]": {"target": "Clone #1", "assay": "BLI (ForteBio Octet); IgG, monovalent"}},
  "data": [
    {"binder": "B1", "values": [
      {"measurement": "Kd", "setting": "Clone #18 [1]", "result": 0.038, "unit": "nM"},
      {"measurement": "Kd", "setting": "Clone #20 [2]", "result": 0.61, "unit": "nM"},
      {"measurement": "Kd", "setting": "Clone #15 [3]", "result": 0.38, "unit": "nM"},
      {"measurement": "Kd", "setting": "Clone #13 [4]", "result": 0.17, "unit": "nM"},
      {"measurement": "Kd", "setting": "Clone #17 [5]", "result": 0.099, "unit": "nM"},
      {"measurement": "Kd", "setting": "Clone #14 [6]", "result": 0.15, "unit": "nM"},
      {"measurement": "Kd", "setting": "Clone #1 [7]", "result": 2.1, "unit": "nM"}
    ]},
    {"binder": "B2", "values": [
      {"measurement": "Kd", "setting": "Clone #12", "result": 1.38, "unit": "nM"},
      {"measurement": "Kd", "setting": "Clone #18 [8]", "result": 0.706, "unit": "nM"},
      {"measurement": "Kd", "setting": "Clone #3", "result": 3.25, "unit": "nM"},
      {"measurement": "Kd", "setting": "Clone #19", "result": 28.3, "unit": "nM"},
      {"measurement": "Kd", "setting": "Clone #20 [9]", "result": 3.89, "unit": "nM"},
      {"measurement": "Kd", "setting": "Clone #16", "result": 3.81, "unit": "nM"},
      {"measurement": "Kd", "setting": "Clone #2", "result": 11.6, "unit": "nM"},
      {"measurement": "Kd", "setting": "Clone #10", "result": 37.3, "unit": "nM"},
      {"measurement": "Kd", "setting": "Clone #15 [10]", "result": 1.97, "unit": "nM"},
      {"measurement": "Kd", "setting": "Clone #7", "result": 94.3, "unit": "nM"},
      {"measurement": "Kd", "setting": "Clone #4", "result": 3.65, "unit": "nM"},
      {"measurement": "Kd", "setting": "Clone #13 [11]", "result": 1.19, "unit": "nM"},
      {"measurement": "Kd", "setting": "Clone #5", "result": 29.6, "unit": "nM"},
      {"measurement": "Kd", "setting": "Clone #8", "result": 28.3, "unit": "nM"},
      {"measurement": "Kd", "setting": "Clone #11", "result": 14.7, "unit": "nM"},
      {"measurement": "Kd", "setting": "Clone #17 [12]", "result": 1.14, "unit": "nM"},
      {"measurement": "Kd", "setting": "Clone #6", "result": 177, "unit": "nM"},
      {"measurement": "Kd", "setting": "Clone #14 [13]", "result": 1.25, "unit": "nM"},
      {"measurement": "Kd", "setting": "Clone #9", "result": 124, "unit": "nM"},
      {"measurement": "Kd", "setting": "Clone #1 [14]", "result": 8.04, "unit": "nM"}
    ]}
  ]
}
